Residue numbers refer to the chain shown, from its start.
B1: 282 (protein)
chain: LDNGLARTPTMGWLHWERFMCNLDCQEEPDSCISEKLFMEMAERMVSEGWKDAGYEYLCIDDCWMAPQRDSEGRLQADPQRFPHGIRQLANYVHSKGLKLGIYADVGNKTCAGFPGSFGYYDIDAQTFADWGVDLLKFDGCYCDSLENLADGYKHMSLALNRTGRSIVYSCEWPLYMWPFQKPNYTEIRQYCNHWRNFADIDDSWASIKSILDWTSFNQERIVDVAGPGGWNDPDMLVIGNFGLSWDQQVTQMALWAIMAAPLFMSNDLRHISPQAKALLQDKDVIAINQDPLGKQGYQLRQGDNFEVWERPLSGLAWAVAMINRQEIGGPRSYTIPVASLGKGVACNPACFITQLLPVKRKLGFYEWTSRLRSHINPTGTVLLQLENTMQMSLKDLL
modifications: Synthetic Polypeptide sequence of Variant No. 282 of mature Human GLA
B2: 285 (protein)
chain: B1 chain with K96I, D247N, P337A
modifications: Synthetic Polypeptide sequence of Variant No. 285 of mature Human GLA
B3: 291 (protein)
chain: B1 chain with L100F, D247N, P337A, F365L
modifications: Synthetic Polypeptide sequence of Variant No. 291 of mature Human GLA
B4: 286 (protein)
chain: B1 chain with K96I, F217R, P337A
modifications: Synthetic Polypeptide sequence of Variant No. 286 of mature Human GLA
B5: 288 (protein)
chain: B1 chain with K96I, F217R, Q302K, A350G, E367D, T369D
modifications: Synthetic Polypeptide sequence of Variant No. 288 of mature Human GLA
B6: 290 (protein)
chain: B1 chain with K96I, L316D, A350G, E367D, T369D
modifications: Synthetic Polypeptide sequence of Variant No. 290 of mature Human GLA
B7: 287 (protein)
chain: B1 chain with F217R, Q302K, A350G
modifications: Synthetic Polypeptide sequence of Variant No. 287 of mature Human GLA
B8: 289 (protein)
chain: B1 chain with K96I, F217R, D247N, Q302K, P337A, A350G
modifications: Synthetic Polypeptide sequence of Variant No. 289 of mature Human GLA
B9: 283 (protein)
chain: B1 chain with Q302K, A350G, E367D, T369D
modifications: Synthetic Polypeptide sequence of Variant No. 283 of mature Human GLA
B10: 284 (protein)
chain: B1 chain with R221T, M322I, P337A, K343D, F365L, I376V
modifications: Synthetic Polypeptide sequence of Variant No. 284 of mature Human GLA

Test: HTP-analysis of yeast culture supernatants, no challenge (MUGal hydrolysis)
Type: biochemical
Details: activity of the variant/activity of Rd2BB (SEQ ID NO: 10), yeast culture supernatant
How it was run: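 Activity read as 4-methylumbelliferyl α-D-galactopyranoside hydrolysis: fluorescence (355/448 nm) after sodium carbonate stop, following 30-180 min at 37° C with 2 mM MUGal stock at pH 4.6–4.8. Enzyme source is unchallenged culture supernatant of INVSc1 yeast expressing GLA variants, grown 66-84 h at 30° C.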

Molecule | Relative Activity of GLA Variants After No Challenge (NC)
B1 | + (+ = 0.5 to 1.5 relative activity over Rd2BB (SEQ ID NO: 10))
B2 | + (+ = 0.5 to 1.5 relative activity over Rd2BB (SEQ ID NO: 10))
B3 | + (+ = 0.5 to 1.5 relative activity over Rd2BB (SEQ ID NO: 10))
B4 | + (+ = 0.5 to 1.5 relative activity over Rd2BB (SEQ ID NO: 10))
B5 | +++ (+++ = >2.5 relative activity over Rd2BB (SEQ ID NO: 10))
B6 | +++ (+++ = >2.5 relative activity over Rd2BB (SEQ ID NO: 10))
B7 | +++ (+++ = >2.5 relative activity over Rd2BB (SEQ ID NO: 10))
B8 | + (+ = 0.5 to 1.5 relative activity over Rd2BB (SEQ ID NO: 10))
B9 | +++ (+++ = >2.5 relative activity over Rd2BB (SEQ ID NO: 10))
B10 | +++ (+++ = >2.5 relative activity over Rd2BB (SEQ ID NO: 10))

Test: HTP-analysis of supernatants pretreated with acid (MUGal hydrolysis)
Type: biochemical
Details: challenge at pH 4.2; activity of the variant/activity of Rd2BB (SEQ ID NO: 10); yeast culture supernatant
How it was run: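 GLA variants were secreted from INVSc1 yeast grown 66-84 h at 30° C. in SD-Ura with 2% glucose; supernatants were mixed with McIlvaine buffer pH 3.3-4.3 and held at 37° C. for 1-3 h. Residual activity on MUGal at pH 4.8 was then measured by fluorescence.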

Molecule | Relative Activity of GLA Variants After Challenge at pH 4.2
B1 | + (+ = 0.5 to 1.5 relative activity over Rd2BB (SEQ ID NO: 10))
B2 | + (+ = 0.5 to 1.5 relative activity over Rd2BB (SEQ ID NO: 10))
B3 | + (+ = 0.5 to 1.5 relative activity over Rd2BB (SEQ ID NO: 10))
B4 | + (+ = 0.5 to 1.5 relative activity over Rd2BB (SEQ ID NO: 10))
B5 | +++ (+++ = >2.5 relative activity over Rd2BB (SEQ ID NO: 10))
B6 | +++ (+++ = >2.5 relative activity over Rd2BB (SEQ ID NO: 10))
B7 | +++ (+++ = >2.5 relative activity over Rd2BB (SEQ ID NO: 10))
B8 | ++ (++ = 1.5 to 2.5 relative activity over Rd2BB (SEQ ID NO: 10))
B9 | +++ (+++ = >2.5 relative activity over Rd2BB (SEQ ID NO: 10))
B10 | +++ (+++ = >2.5 relative activity over Rd2BB (SEQ ID NO: 10))

Test: HTP-analysis of supernatants pretreated with base (MUGal hydrolysis)
Type: biochemical
Details: challenge at pH 7.6; activity of the variant/activity of Rd2BB (SEQ ID NO: 10); yeast culture supernatant
How it was run: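 Supernatants from INVSc1 yeast expressing GLA variants (SD-Ura, 66-84 h, 30° C) were mixed with McIlvaine buffer pH 7.0-8.2 or 200 mM sodium bicarbonate pH 9.1-9.7 and held 1-18 h at 37° C. Residual activity was then measured on MUGal at pH 4.8/4.3, 37° C, 30-180 min, by fluorescence (Ex 355/Em 448 nm).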

Molecule | Relative Activity of GLA Variants After Challenge at pH 7.6
B1 | + (+ = 0.5 to 1.5 relative activity over Rd2BB (SEQ ID NO: 10))
B2 | ++ (++ = 1.5 to 2.5 relative activity over Rd2BB (SEQ ID NO: 10))
B3 | + (+ = 0.5 to 1.5 relative activity over Rd2BB (SEQ ID NO: 10))
B4 | ++ (++ = 1.5 to 2.5 relative activity over Rd2BB (SEQ ID NO: 10))
B5 | +++ (+++ = >2.5 relative activity over Rd2BB (SEQ ID NO: 10))
B6 | +++ (+++ = >2.5 relative activity over Rd2BB (SEQ ID NO: 10))
B7 | +++ (+++ = >2.5 relative activity over Rd2BB (SEQ ID NO: 10))
B8 | ++ (++ = 1.5 to 2.5 relative activity over Rd2BB (SEQ ID NO: 10))
B9 | +++ (+++ = >2.5 relative activity over Rd2BB (SEQ ID NO: 10))
B10 | +++ (+++ = >2.5 relative activity over Rd2BB (SEQ ID NO: 10))

Test: HTP-analysis of supernatants pretreated with bovine serum (MUGal hydrolysis)
Type: biochemical
Details: activity of the variant/activity of Rd2BB (SEQ ID NO: 10), yeast culture supernatant
How it was run: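 Yeast INVSc1 culture supernatants containing secreted GLA variants were mixed with bovine serum (20:80) and held 1 h at 37° C. Serum-treated samples then reacted with MUGal (4 mM stock) in citrate/McIlvaine buffer (pH 4.3/4.8) for 180 min at 37° C., were quenched with sodium carbonate, and read by fluorescence (Ex 355, Em 448 nm).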

Molecule | Relative Activity of GLA Variants After Challenge with Serum
B1 | + (+ = 0.5 to 1.5 relative activity over Rd2BB (SEQ ID NO: 10))
B2 | + (+ = 0.5 to 1.5 relative activity over Rd2BB (SEQ ID NO: 10))
B3 | + (+ = 0.5 to 1.5 relative activity over Rd2BB (SEQ ID NO: 10))
B4 | + (+ = 0.5 to 1.5 relative activity over Rd2BB (SEQ ID NO: 10))
B5 | +++ (+++ = >2.5 relative activity over Rd2BB (SEQ ID NO: 10))
B6 | +++ (+++ = >2.5 relative activity over Rd2BB (SEQ ID NO: 10))
B7 | ++ (++ = 1.5 to 2.5 relative activity over Rd2BB (SEQ ID NO: 10))
B8 | ++ (++ = 1.5 to 2.5 relative activity over Rd2BB (SEQ ID NO: 10))
B9 | +++ (+++ = >2.5 relative activity over Rd2BB (SEQ ID NO: 10))
B10 | +++ (+++ = >2.5 relative activity over Rd2BB (SEQ ID NO: 10))
